Data: publication PMC4338161

Molecular target: BK α W176C (S2–S3 loop) in the pWTb background (mouse)
Assay: cross-linking

extent of cross-linking: 80%
Substance: BK β1 subunit G12C (TM1 flank) in the pWT β1 background (from UniProt Q16558-1 1-191) (natural protein)
